Substitutions are numbered along the chain they refer to.

B1: 53-16 (ligand)
chain: AHYNTEILKSIDNEWRKTQCMPIETLVDIFQEYPDEIEYIFKPPCVSVYRCGGCCNSEGLQCMNTSTSYLSKTLFEITVPLSQGPKPVTISFANHTSCRCMSKLD
B2: 73-16 (ligand)
chain: GQNHHEVVKSIDNEWRKTQCMPREVCIDVGKEYPDEIEYIFKPPCVSVYRCGGCCNSEGLQCMNTSTSYLSKTLFEITVPLSQGPKPVTISFANHTSCRCMSKLD
B3: 73-14 (ligand)
chain: B2 chain with S57D, Q61E
B4: 71-14 (ligand)
chain: B2 chain with P44S, S47P, V48L, Y49M, S57D, Q61E
B5: 33-1 (ligand)
chain: GQNHHEVVKSIDNEWRKTQCMPIETLVDIFQEYPDEIEYIFKPPCVSVYRCGGCCNDEGLECVPTEESNITMQIMRIKPHQGQHIGEMSFLQHNKCECRPKKD
B6: 33-3 (ligand)
chain: B5 chain with D57S, E61Q
B7: 73-9 (ligand)
chain: GQNHHEVVKSIDNEWRKTQCMPREVCIDVGKEYPDEIEYIFKPPCVSVYRCGGCCNDEGLECVPTEESNITMQIMRITVPLSQGPKPVTISFLQHNKCECRPKKD
B8: 74-9 (ligand)
chain: GQNHHEVVKSIDNEWRKTQCMPREVCIDVGKEFGVATNTFFKPSCVPLMRCGGCCNDEGLECVPTEESNITMQIMRITVPLSQGPKPVTISFLQHNKCECRPKKD
B9: 73-13 (ligand)
chain: B7 chain with L93A, Q94N, N96T, K97S, E99R, R101M, P102S, K104L
B10: 72-11 (ligand)
chain: B8 chain with S44P, P47S, L48V, M49Y, D57S, E61Q
B11: 21-9 (ligand)
chain: AHYNTEILKSIDNEWRKTQCMPREVCIDVGKEYPDEIEYIFKPSCVPLMRCGGCCNDEGLECVPTEESNITMQIMRITVPLSQGPKPVTISFLQHNKCECRPKKD
B12: 33-9 (ligand)
chain: B7 chain with R23I, V25T, C26L, I27V, V29I, G30F, K31Q
B13: 73-11 (ligand)
chain: B7 chain with D57S, E61Q
B14: 23-9 (ligand)
chain: B11 chain with S44P, P47S, L48V, M49Y
B15: 41-3 (ligand)
chain: AHYNTEILKFMDVYQRSYCHPREVCIDVGKEYPDEIEYIFKPSCVPLMRCGGCCNSEGLQCVPTEESNITMQIMRIKPHQGQHIGEMSFLQHNKCECRPKKD
B16: 42-3 (ligand)
chain: AHYNTEILKFMDVYQRSYCHPREVCIDVGKEFGVATNTFFKPPCVSVYRCGGCCNSEGLQCVPTEESNITMQIMRIKPHQGQHIGEMSFLQHNKCECRPKKD
B17: 41-5 (ligand)
chain: B15 chain with S56D, Q60E, L90A, Q91N, N93T, K94S, E96R, R98M, P99S, K101L
B18: 44-3 (ligand)
chain: B16 chain with P43S, S46P, V47L, Y48M
B19: 43-3 (ligand)
chain: B15 chain with S43P, P46S, L47V, M48Y
B20: 43-1 (ligand)
chain: B15 chain with S43P, P46S, L47V, M48Y, S56D, Q60E
B21: 44-1 (ligand)
chain: B16 chain with P43S, S46P, V47L, Y48M, S56D, Q60E
B22: 61-3 (ligand)
chain: B15 chain with A1G, H2Q, Y3N, N4H, T5H, I7V, L8V
B23: 43-7 (ligand)
chain: AHYNTEILKFMDVYQRSYCHPREVCIDVGKEYPDEIEYIFKPPCVSVYRCGGCCNSEGLQCVPTEESNITMQIMRIKPHQGQHIGEMSFANHTSCRCMSKLD
B24: 61-1 (ligand)
chain: B15 chain with A1G, H2Q, Y3N, N4H, T5H, I7V, L8V, S56D, Q60E
B25: 41-1 (ligand)
chain: B15 chain with S56D, Q60E

T2 sequence (P35968 20-322): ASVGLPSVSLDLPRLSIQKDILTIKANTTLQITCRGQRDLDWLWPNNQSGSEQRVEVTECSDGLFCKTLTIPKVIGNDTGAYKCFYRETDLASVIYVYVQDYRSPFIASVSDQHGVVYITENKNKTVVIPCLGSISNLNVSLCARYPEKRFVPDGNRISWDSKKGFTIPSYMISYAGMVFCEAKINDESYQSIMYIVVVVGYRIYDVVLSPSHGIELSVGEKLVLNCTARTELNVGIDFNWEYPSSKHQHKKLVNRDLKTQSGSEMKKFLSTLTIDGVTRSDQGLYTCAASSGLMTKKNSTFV

For one assay, the target named is T1, VEGFR-3-Fc (UniProt P35916 25-328).
T1 construct: domain: first three Ig domains; conditioned supernatant of 293T cells; also called VEGFR-3-Fc fusion protein; not shown: Fc fragment of the pIg vector
T1 sequence (looked up): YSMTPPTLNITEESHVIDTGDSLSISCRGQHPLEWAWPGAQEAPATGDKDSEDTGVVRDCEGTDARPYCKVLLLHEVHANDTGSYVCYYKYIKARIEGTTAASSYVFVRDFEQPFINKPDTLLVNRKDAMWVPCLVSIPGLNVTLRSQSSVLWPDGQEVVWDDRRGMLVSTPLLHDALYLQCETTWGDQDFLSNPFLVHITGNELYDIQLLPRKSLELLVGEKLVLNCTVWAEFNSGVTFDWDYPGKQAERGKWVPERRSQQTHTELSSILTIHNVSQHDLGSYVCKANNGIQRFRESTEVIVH
The assay can be described thus: receptor-Fc IP. On the procedure: (§1) The binding assay procedure was identical to the immunoprecipitation using pentahistidine antibody described in Example 2, apart from the composition of the immunoprecipitation (IP) mixes. The IP mixes used for the receptor binding analysis were as follows: For VEGFR-1 binding assays, the IP mix was phosphate buffered saline (PBS) containing 1.5% BSA, 0.06% Tween 20, 3 μg/ml heparin and 400 ng/ml VEGFR-1-Fc fusion protein (100 μl of this IP mix was added to 200 μl of sample supernatant); for VEGFR-2 binding assays, the IP mix was 82% conditioned cell supernatant from 293T cells transiently expressing VEGFR-2-Fc fusion protein in mixture with 18% of a PBS solution that contained 5% BSA, 0.2% Tween 20, and 10 μg/ml heparin (250 μl of IP mix was added to 200 μl of sample supernatant); and for VEGFR-3 binding assays, the IP mix was 82% conditioned cell supernatant from 293T cells transiently expressing VEGFR-3-Fc fusion protein, 18% of PBS containing 5% BSA, 0.2% Tween 20, and 10 μg/ml heparin (250 μl of IP mix was added to 200 μl of sample supernatant).
Turning to B1, the binding result was “no binding”.
In the case of B2, the binding result is listed as “no binding”.
On to B3, for which the binding result is reported as “no binding”.
For the molecule B4, the binding result was “no binding”.
Take B5: the binding result is “no binding”.
With B6, the binding result is given as “no binding”.
For the molecule B7, the binding result is recorded as “no binding”.
For the molecule B8, the binding result is recorded as “no binding”.
On to B9, for which the binding result was “no binding”.
B10: the binding result is reported as “no binding”.
Turning to B11, the binding result is “no binding”.
The same measure, in the same setting: to B12 belongs “no binding”; to B13, “no binding”.
Same read-out and setting: to B14 belongs “no binding”; to B15, “no binding”; to B16, “no binding”.
For B17, the binding result was “no binding”.
The same measure, in the same setting: the result for B18 reads “no binding”.
B19: the binding result is given as “no binding”.
The same measure, in the same setting: the result for B20 reads “no binding”; that for B21, “no binding”.
Take B22: the binding result was “no binding”.
For B23, the binding result is “no binding”.
On the same count and under the same terms, to B24 belongs “no binding”.
Turning to B25, the binding result is recorded as “no binding”.

A further assay concerns the target T2, VEGFR-2-Fc (UniProt P35968 20-322).
T2 construct: domain: first 3 Ig domains; conditioned supernatant of 293T cells; also called VEGFR-2-Fc fusion protein; not shown: Fc fragment of the pIg vector
The assay can be described thus: receptor-Fc IP. On the procedure: as §1
Consider B1, for which the binding result is “no binding”.
For the molecule B2, the binding result is on record as “no binding”.
With B3, the binding result was “no binding”.
The same measure, in the same setting: to B4 belongs “no binding”; to B5, “binds”.
Turning to B6, the binding result is reported as “binds”.
Same read-out and setting: to B7 belongs “no binding”; to B8, “no binding”; to B9, “no binding”.
In the case of B10, the binding result is reported as “no binding”.
Take B11: the binding result is recorded as “no binding”.
Regarding B12, the binding result is “binds”.
For the molecule B13, the binding result is given as “no binding”.
For B14, the binding result is “no binding”.
B15: the binding result is on record as “no binding”.
For the molecule B16, the binding result is given as “no binding”.
On the same count and under the same terms, the result for B17 reads “no binding”; that for B18, “no binding”; that for B19, “no binding”.
With B20, the binding result is “no binding”.
Consider B21, for which the binding result is reported as “no binding”.
For the molecule B22, the binding result is recorded as “no binding”.
With B23, the binding result is “no binding”.
With B24, the binding result was “no binding”.
On to B25, for which the binding result is listed as “no binding”.

The next assay deals with T3, VEGFR-1-Fc (UniProt P17948 27-338).
T3 construct: domain: first three Ig domains; expressed in Drosophila S2 cells, purified on Protein A sepharose; also called VEGFR-1-Fc fusion protein; not shown: Fc fragment from the Signal-pIgPlus vector
T3 sequence (P17948 27-338): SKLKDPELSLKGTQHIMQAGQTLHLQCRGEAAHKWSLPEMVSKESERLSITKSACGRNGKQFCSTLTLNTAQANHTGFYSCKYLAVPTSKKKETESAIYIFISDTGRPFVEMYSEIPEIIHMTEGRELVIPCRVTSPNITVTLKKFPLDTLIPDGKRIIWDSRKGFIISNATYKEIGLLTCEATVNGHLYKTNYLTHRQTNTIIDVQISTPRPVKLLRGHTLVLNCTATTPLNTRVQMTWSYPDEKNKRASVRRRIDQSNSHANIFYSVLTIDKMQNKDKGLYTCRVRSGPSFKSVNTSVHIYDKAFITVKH
Put plainly: receptor-Fc IP. On the procedure:
as §1
On to B1, for which the binding result is “no binding”.
For the molecule B2, the binding result was “no binding”.
Regarding B3, the binding result was “no binding”.
As for B4, the binding result is reported as “no binding”.
With B5, the binding result is on record as “no binding”.
With B6, the binding result is “no binding”.
For B7, the binding result is “no binding”.
Turning to B8, the binding result is “no binding”.
Consider B9, for which the binding result is on record as “no binding”.
On the same count and under the same terms, to B10 belongs “no binding”; to B11, “no binding”; to B12, “no binding”.
Take B13: the binding result was “no binding”.
As to B14, the binding result is reported as “no binding”.
Regarding B15, the binding result is “no binding”.
As to B16, the binding result is given as “no binding”.
For B17, the binding result was “no binding”.
As to B18, the binding result is “no binding”.
As to B19, the binding result was “no binding”.
Consider B20, for which the binding result is “binds”.
In the case of B21, the binding result is given as “no binding”.
B22: the binding result is “binds”.
On to B23, for which the binding result was “no binding”.
As for B24, the binding result is reported as “binds”.
For the molecule B25, the binding result is “binds”.

These data come from patent publication US20080058263A1 (published 2008).
